Reference: paper PMC12519261
Where no end group is shown, it is not given here.

Target: b1b2 domain of NRP-1 (recombinant)
Test: pull-down; Ni-NTA magnetic agarose beads coated with the b1b2 domain of NRP-1; fluorescent HLPNs incubated 1 h at room temperature with uPA added; 50 mM Tris pH 7.5, 1 M NaCl, 5 mM imidazole, 0.05% NP40; eluted with 400 mM imidazole, fluorescence of the eluate read

fold increase of binding by uPA treatment (against no uPA): 4 fold
B1: uPA-cleaved LinTT1 peptide with exposed CendR motif, on HLPNs (peptide)
peptide: AKRGAR-OH
modifications: also: FAM label, site not given here, conjugated to surface of HLPNs
